In PMC12361007 (AMB Express, 2025) one finds Kd data, which are given here for one molecule.

As usually defined, the Kd is a measure of binding affinity in units of concentration.

The target in this test is human serum albumin (human, UniProt P02768 25-609). In words: BLI. (In general: BLI is a label-free optical method that tracks binding on a fibre tip over time.)

B1: rhIL-22BP-ABD (recombinant human IL-22 binding protein fused to the albumin-binding domain ABD) (other)
chain: TQSTHESLKPQRVQFQSRNFHNILQWQPGRALTGNSSVYFVQYKIYGQRQWKNKEDCWGTQELSCDLTSETSDIQEPYYGRVRAASAGSYSEWSMTPRFTPWWETKIDPPVMNITQVNGSLLVILHAPNLPYRYQKEKNVSIEDYYELLYRVFIINNSLEKEQKVYEGAHRAVEIEALTPHSSYCVVAEIYQPMLDRRSQRSEERCVEIPLAEAKVLANRELDKYGVSDYYKNLINNAKTVEGVKALIDEILAALP
In turn, B1 yielded a Kd of 1150 nM.
